Laboratory results from the supplement of paper PMC10567573.
± gives the standard deviation.

Assay: protein stability index of a GFP-peptide fusion (GPS, HEK-293T) (PSI 1-6); higher = more stable
[1] = treatment: MLN4924 1 uM, 8 h, c terminus: a fixed tail appended
[2] = treatment: DMSO, c terminus: a fixed tail appended
[3] = treatment: DMSO, c terminus: native
[4] = treatment: MLN4924 1 uM, 8 h, c terminus: native
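Note: 24-mer peptide tiles fused after GFP, lentivirally expressed, FACS-sorted into six equal bins by GFP/DsRed ratio, decoded by Illumina sequencing, PSI is the read-weighted mean bin number.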

Sequence: VSGLLVGYELGIISGALLQIKTLL [SLC2A12]
- protein stability index [1]: 2.97 ± 1.2

Sequence: VSHVFMLLFNVKSPTDIQDSSIIR [RHOBTB3]
- protein stability index [2]: 2.81 ± 0.56
- protein stability index [1]: 2.64 ± 0.48

Sequence: VSIMYLVLVLAVQVHAWQLYYSKK [JAGN1]
- protein stability index [2]: 2.98 ± 0.67
- protein stability index [1]: 3.27 ± 0.16

Sequence: VSTWFANARRRLKKENKMTWAPKN [IRX6]
- protein stability index [2]: 2.57 ± 0.22
- protein stability index [1]: 2.75 ± 0.13

Sequence: VTDYFFTLVQREEPLRILSKYHRF [CDS2]
- protein stability index [2]: 2.45 ± 0.21
- protein stability index [1]: 2.42 ± 0.28

Sequence: VTLAAHFLGLGAPNCLSMGSRCLK [ZBED1]
- protein stability index [2]: 2.26 ± 0.37
- protein stability index [1]: 2.19 ± 0.21

Sequence: VTSFDSVVPEKLDDLVPKGKKFLL [ALG2]
- protein stability index [2]: 3.32 ± 0.25
- protein stability index [1]: 3.31 ± 0.16

Sequence: VVEKRLCMYEHGEDTHQSPEPEDE [RSPH3]
- protein stability index [2]: 5.43 ± 0.43
- protein stability index [1]: 5.58 ± 0.23

Sequence: VVETVFFLTSRTRALLRRFPRMLL [ZSWIM9]
- protein stability index [2]: 2.89 ± 0.095
- protein stability index [1]: 2.87 ± 0.3

Sequence: WAVVTMTTVGYGDMKPITVGGKIV [KCNA4]
- protein stability index [2]: 2.84 ± 0.38
- protein stability index [1]: 2.72 ± 0.55

Sequence: WDKHACPAYVGPEILSSRASYSGK [TRIB3]
- protein stability index [2]: 3.53 ± 0.096
- protein stability index [1]: 3.5 ± 0.24

Sequence: WERVHLIVAGGYDERVLENVEHYQ [ALG2]
- protein stability index [2]: 2.33 ± 0.19
- protein stability index [1]: 2.48 ± 0.3

Sequence: WESRTGDQYSYSSLVMGSQTESAL [LCOR]
- protein stability index [2]: 3.44 ± 0.27
- protein stability index [1]: 3.51 ± 0.46

Sequence: WQSESLPVSLSASQSWHTESLPVS [BCL2L13]
- protein stability index [2]: 3.26 ± 0.23
- protein stability index [1]: 3.35 ± 0.14

Sequence: WRITNAKGDVEEVQGPGVVGEFPI [FBXO3]
- protein stability index [2]: 3.75 ± 0.34
- protein stability index [1]: 3.84 ± 0.48

Sequence: WTLYKILDSCKQLTLAQGAGEEDP [SMG5]
- protein stability index [2]: 2.32 ± 0.18
- protein stability index [1]: 2.56 ± 0.28

Sequence: YCSIKCQQEHWHAEHKRTCRRKR [ZMYND11]
- protein stability index [3]: 2.92 ± 0.61
- protein stability index [4]: 3.51 ± 0.87

Sequence: YDGMLSDVQSMPKTGILILILSII [MAGEA10]
- protein stability index [2]: 2.36 ± 0.78
- protein stability index [1]: 2.12 ± 0.48

Sequence: YDGRSRLSSVECLDYTADEDGVWY [KLHL12]
- protein stability index [2]: 3.55 ± 0.4
- protein stability index [1]: 3.76 ± 0.35

Sequence: YEDTNGQPQALLVDGDQSKILISG [TNXB]
- protein stability index [2]: 4.99 ± 0.13
- protein stability index [1]: 4.73 ± 0.12

Sequence: YEKKFDTFIPLEPLPQIPNLPFWV [SPATS1]
- protein stability index [2]: 2.24 ± 0.31
- protein stability index [1]: 1.95 ± 0.18

Sequence: YFSTPQTMDLFLNYSMNMQPEDV [NANOGP8]
- protein stability index [3]: 2.34 ± 0.21
- protein stability index [4]: 2.27 ± 0.55

Sequence: YFYPRGGGSGGGAGGAGGGVTEEQ [JUNB]
- protein stability index [2]: 5.01 ± 0.3
- protein stability index [1]: 4.89 ± 0.41

Sequence: YHNSPAYLAYINAKSRAEAALEEE [SMARCE1]
- protein stability index [2]: 2.53 ± 0.54
- protein stability index [1]: 4.01 ± 0.38

Sequence: YISLLLRAEPYPTSRFGSQCMQPN [NR2F2]
- protein stability index [2]: 2.55 ± 0.5
- protein stability index [1]: 2.43 ± 0.39

Sequence: YKIVTAREWRCCPGHSGVSCEEVA [EMID1]
- protein stability index [2]: 2.49 ± 0.32
- protein stability index [1]: 2.39 ± 0.41

Sequence: YLPPERIREKSRLFDTKHDVYSFA [RIPK4]
- protein stability index [2]: 2.62 ± 0.24
- protein stability index [1]: 2.72 ± 0.25

Sequence: YLYTYDSQITDSEHNSSLVSQQTG [ZNF8]
- protein stability index [2]: 3.73 ± 0.2
- protein stability index [1]: 3.71 ± 0.11

Sequence: YLYYDPDYSFLSLGVYSALREIAF [ATE1]
- protein stability index [2]: 2.92 ± 0.2
- protein stability index [1]: 2.67 ± 0.24

Sequence: YMGKGSMTGLALKHMFERSFTQGE [MATN2]
- protein stability index [2]: 2.37 ± 0.23
- protein stability index [1]: 3.07 ± 0.18

Sequence: YNQQQALIDQRYFQVLCSINSIIH [CEP70]
- protein stability index [2]: 2.32 ± 0.34
- protein stability index [1]: 2.24 ± 0.23

Sequence: YPPQMGEEYSQIIYSTKLYRFFKY [BTBD10]
- protein stability index [2]: 2.88 ± 0.71
- protein stability index [1]: 2.73 ± 0.83

Sequence: YPSYKVREKIETVKYPTYPEAEK [FUT8]
- protein stability index [3]: 4.07 ± 0.19
- protein stability index [4]: 4.16 ± 0.57

Sequence: YRFRMKCHLCVNYIEMQTDPANCD [YJU2B]
- protein stability index [2]: 2.3 ± 0.31
- protein stability index [1]: 2.26 ± 0.17

Sequence: YRWHINFTTFFIDCMAALGLAYDR [SCD]
- protein stability index [2]: 2.99 ± 0.65
- protein stability index [1]: 2.61 ± 0.64

Sequence: YSAIDRVKSRGKRLALEKVPKVGQ [PI4K2A]
- protein stability index [2]: 4.04 ± 0.33
- protein stability index [1]: 4.12 ± 0.27

Sequence: YSDRTNIISKPVPQTLIMAYDYAK [FEM1C]
- protein stability index [2]: 2.36 ± 0.24
- protein stability index [1]: 2.49 ± 0.41

Sequence: YSENAPFHLSLFQGWMNLLNMAKK [PLD5]
- protein stability index [2]: 2.08 ± 0.61
- protein stability index [1]: 2.23 ± 0.13

Sequence: YSFGSGGGYGSSFGGVDGLLAGGE [KRT17]
- protein stability index [2]: 2.84 ± 0.13
- protein stability index [1]: 2.9 ± 0.098

Sequence: YSKTWTKQPDLTMVRKIGCYAAMK [GAN]
- protein stability index [2]: 2.92 ± 0.96
- protein stability index [1]: 2.42 ± 0.19

Sequence: YSPAVMNYSIPSNVTNLEGGPGRQ [ESR2]
- protein stability index [2]: 3.8 ± 0.4
- protein stability index [1]: 3.75 ± 0.4

Sequence: YSYVVSRPQPRGLLGWGYYLIMLP [FAF2]
- protein stability index [2]: 2.89 ± 0.57
- protein stability index [1]: 2.16 ± 0.37

Sequence: YTRLGEMNNAVRNLQELLELDSSS [CEP70]
- protein stability index [2]: 3.77 ± 0.22
- protein stability index [1]: 4.06 ± 0.17

Sequence: YTSPDKLKDIFMFITRQLKGLEDT [PDS5B]
- protein stability index [2]: 3.62 ± 0.19
- protein stability index [1]: 3.84 ± 0.3

Sequence: YVSLGRLGAAKGALHPGCFAPLHP [CEBPB]
- protein stability index [2]: 3.44 ± 0.94
- protein stability index [1]: 2.73 ± 0.17

Sequence: YYPRVQHYRELLDSLPMDAYTHGC [GDAP1]
- protein stability index [2]: 2.21 ± 0.17
- protein stability index [1]: 2.32 ± 0.23

Sequence: YYRGFTLFQTHENREHLVMMEKIL [CLK3]
- protein stability index [2]: 2.31 ± 0.31
- protein stability index [1]: 2.34 ± 0.37
